Two compounds from patent publication US6034066A, “Cysteine protease inhibitors for use in treatment of IGE mediated allergic diseases” (Peptide Therapeutics Limited, priority 1995, dated 2000) can be followed below.

For the assay, the target named is T1, Der p I (Dermatophagoides pteronyssinus, UniProt P08176).
T1 construct: tissue SmithKline-Beecham (crude mite extract); host or cells: house dust mite extract, purified on immobilised anti-Der p I antibody 4C1
T1 sequence (P08176 99-320): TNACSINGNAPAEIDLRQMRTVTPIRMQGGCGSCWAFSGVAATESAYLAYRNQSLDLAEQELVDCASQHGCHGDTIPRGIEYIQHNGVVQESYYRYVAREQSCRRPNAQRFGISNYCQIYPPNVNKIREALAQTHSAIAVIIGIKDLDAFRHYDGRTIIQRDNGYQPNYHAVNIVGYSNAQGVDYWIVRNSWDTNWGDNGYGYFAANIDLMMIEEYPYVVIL
Kind of assay: Cleavage of membrane CD23 on RPMI 8866 B cells by Der p I, FACS with FITC anti-CD23 (Bu38). Particulars: Der p I pre-incubated 30 min at 37° C. with inhibitor, then added to RPMI 8866 cells; FIG. 1(c). The class given is cell-based. The text has this: We have affinity purified Der p I from dust mite extract and tested its ability to proteolytically cleave CD23 expressed on cultured RPMI 8866 B cells, using FITC labelled monoclonal anti-human CD23 (Bu38). […] The proteolytic activity of Der p I was inhibited by E64 (a cysteine protease inhibitor), but not by alpha-1-antitrypsin (a serine protease inhibitor), thereby confirming the cysteine protease nature of Der p I (FIG. 1c). […] A more detailed description of FIG. 1 is as follows:
Cells were analysed on a FACScan (Becton Dickinson, Oxford, UK) with a linear fluorescence setting of 660 volts. The fluorescence (FL1) profile versus forward scatter (FSC) was used to monitor the cells, the amplification scale was altered according to the level of fluorescence. For each sample 4000 events were collected and then analysed using the flowMATE programme (DAKO, High Wycombe, UK). Data presented are representative of 3 replicate experiments, each point in a to c represents the mean of duplicate determinations, FIG. 1(a). Dose and cysteine dependency of CD23 cleavage by Der p I (for method of purification see FIG. 1(d) below). Der p I was pre-incubated (15 min at 37° C.) with or without 5 mM cysteine and added to 2-3×10^5 RPMI 8866 cells in a total volume of […] RPMI 1640+10 mM HEPES. […]

Regarding “alpha-1-antitrypsin: a naturally occurring human serine protease inhibitor”, the “inhibition of membrane CD23 cleavage by Der p I” value is reported as “no such inhibitory effect”. With `CC(C)C[C@H](NC(=O)[C@H]1O[C@@H]1C(=O)O)C(=O)NCCCCN=C(N)N` (relative stereo) [Compound E64, L-trans-epoxysuccinyl-leucylamido (4-guanidino) butane, reference compound], the “inhibition of membrane CD23 cleavage by Der p I” value is “completely inhibits”.
